# In US10184115B2, “Mutated cellobiose dehydrogenase with increased substrate specificity” (DIRECTSENS GMBH, priority 2012, dated 2019):
# B1: Corynascus thermophilus cellobiose dehydrogenase (CDH), recombinant wild type, SEQ ID NO: 7 (Thermothelomyces fergusii) (protein)
# chain: QMTEGTYTHEATGITFKTWTPSDGSTFTFGLALPGDALTNDATEYIGLLRCQITDPSSPGYCGISHGQSGQMTQALLLVAWASEDVVYTSFRYATGYTLPELYTGDAKLTQIASSVSGDSFEVLFRCENCFSWDQNGATGSVSTSNGALVLGYAASKSGLTGATCPDTAEFGFHNNGFGQWGAVLEGATSDSYEEWAQLATITPPTTCDGNGPGDKVCVPAPEDTYDYIVVGAGAGGITVADKLSEAGHKVLLIEKGPPSTGLWNGTMKPEWLEGTDLTRFDVPGLCNQIWVDSAGIACTDTDQMAGCVLGGGTAVNAGLWWKPHPADWDDNFPHGWKSSDLADATERVFSRIPGTWHPSQDGKLYRQEGFEVISQGLANAGWREVDANQEPSEKNRTYSHSVFMFSGGERGGPLATYLASAAQRSNFNLWVNTSVRRAIRTGPRVSGVELECLADGGFNGTVNLKEGGGVIFSAGAFGSAKLLLRSGIGPEDQLEIVASSKDGETFISKNDWIKLPVGHNLIDHLNTDLIITHPDVVFYDFYAAWDNPITEDKEAYLNSRSGILAQAAPNIGPLMWEEVTPSDGITRQFQWTCRVEGDSSKTNSTHAMTLSQYLGRGVVSRGRMGITSGLTTTVAEHPYLHNDGDLEAVIQGIQNVVDALSQVPDLEWVLPPPNTTVEEYVNSLIVSPANRRANHWMGTAKMGLDDGRSGGSAVVDLNTKVYGTDNLFVVDASIFPGMSTGNPSAMIVIVAEQAAQRILSLRY
# Experiments:
# [1] = substrate: OC[C@H]1OC(O)[C@H](O)[C@@H](O)[C@@H]1O; experiment: purified protein, by the assay type; conditions: other: apparent, wt, DCIP assay, pH 5.5, 30° C.
# [2] = substrate: OC[C@H]1O[C@H](O[C@H]2[C@H](O)[C@@H](O)C(O)O[C@@H]2CO)[C@H](O)[C@@H](O)[C@@H]1O; experiment: purified protein, by the assay type; conditions: other: apparent, wt, DCIP assay, pH 5.5, 30° C.
# Description: Enzyme activity was assayed at 30° C. using either the DCIP (Karapetyan et al., 2005 Journal of Biotechnology 121: 34-48) or cytochrome c (Canevascini et al., 1991, European Journal of Biochemistry 198: 43-52) as electron acceptor. […] Stock solutions of carbohydrates used for kinetic measurements were prepared in the respective buffer and allowed to stand overnight for mutarotation, while stock solutions of electron acceptors were prepared in water and immediately used. The reaction stoichiometry is 1 for the two-electron acceptor DCIP (1 mole of DCIP reduced per mole of carbohydrate oxidized), but 2 for the one-electron acceptor cytochrome c. Kinetic constants were calculated by fitting the observed data to the Henri-Michaelis-Menten equation or to the adapted model for substrate inhibition using nonlinear least-squares regression and the program SigmaPlot (Systat Software, San Jose, Calif., USA).
# Enzymes were purified to homogeneity in a two-step purification. The sample was loaded on a 20 mL PHE Sepharose FF column (HR26/20) equilibrated with 50 mM Na-acetate buffer pH 5.5 containing 20% ammonium sulfate. Proteins were eluted by increasing the concentration of the elution buffer (50 mM Na-acetate buffer pH 5.5) from 0 to 100% in 5 column volumes and fractions containing CDH activity were pooled. After diafiltration with a polyethersulfone flat-stack cross flow module with a cut-off of 10 kDa (Viva Flow 50, Sartorius, Göttingen, Germany) until conductivity of 5 mS cm^−1 in 20 mM Na-acetate pH 5.5 the samples were loaded on a 20 mL Q-Source column (HR26/20) equilibrated with a 20 mM Na-acetate buffer pH 5.5. CDH was eluted by increasing the concentration of the elution buffer (50 mM Na-acetate buffer pH 5.5 containing 0.5 M NaCl) from 0 to 100% in 50 column volumes. Fractions were tested for CDH activity and pooled according to the highest Reinheitszahl (RZ, calculated from the absorbance ratio 420 nm/280 nm). Purified enzymes were concentrated and diafiltered in 50 mM citrate buffer, pH 5.5, aliquoted and kept at 4° C. for further use.
protein,measurement,setting,value
B1,Km,[1],86.7 mM
same,Km,[2],4.08 mM
same,kcat,[2],0.50 s⁻¹
same,kcat/Km,[2],120 M⁻¹ s⁻¹
